Measured values from the domain aggregation screens of Martell et al. (2025).

Assay: soluble fraction after stress (log2 fold change); higher = more stays soluble; pooled small domains, quantitative proteomics
Details: stress: 50 degC
Summary of the method: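 The stress applied to every library was 50°C. These custom libraries of small protein domains were pooled and measured at high throughput with quantitative proteomics as the read-out. Aggregation propensity is expressed as the base-two logarithm of the fold change in how much of each protein remains soluble. The higher the value, the more of that protein stays in solution.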

| Sequence | soluble fraction (log2) |
| --- | --- |
| HMYVTGSAIRRLREKRKLTQAQLAAALSVSDKTVSKWETARGLPDITLLEPLARALQVSVPELLSGEEV | -0.255 |
| HMYVVLYPGMARDEAVQVMNELQSRGIDYYEKNGNIYVPKTDENSLRMELANLGYPKTTNNYD | 0.0519 |
| HMYYHQIIGLDVVDENGNTLGKIKEILSPGANDVWVVKRKQKNDLLLPVIDDVIKDVDLAAGKVHVELLEG | -0.0975 |
